Source: paper PMC10810954, “Structural and functional insights into the lipid regulation of human anion exchanger 2” (Nature Communications, 2024)

Target: the molecule itself
Assay: cryo-EM structure; purified AE2 in 50 μM GDN, 150 mM NaCl, 20 mM HEPES pH 7.4; Titan Krios 300 kV; homodimer

Protein | stoichiometry N
Full-length canonical human AE2 (isoform 1), wild type (natural protein, UniProt P04920-1 1-1241, looked up, Anion exchanger 2 (AE2, SLC4A2), human, isoform a, UniProtKB P04920-1, full length; Full-length protein was purified, but only the TMDs are resolved in the map; the NTD, parts of EL3, EL4, EL6 and the C-terminus are not modelled; also called Anion exchanger 2; hAE2; source: HEK293F (FreeStyle 293 F) cells, BacMam system, purified (LMNG/CHS extraction, Ni-NTA, TEV, Superose 6 in GDN); not shown: …) MSSAPRRPAKGADSFCTPEPESLGPGTPGFPEQEEDELHRTLGVERFEEILQEAGSRGGEEPGRSYGEEDFEYHRQSSHHIHHPLSTHLPPDARRRKTPQGPGRKPRRRPGASPTGETPTIEEGEEDEDEASEAEGARALTQPSPVSTPSSVQFFLQEDDSADRKAERTSPSSPAPLPHQEATPRASKGAQAGTQVEEAEAEAVAVASGTAGGDDGGASGRPLPKAQPGHRSYNLQERRRIGSMTGAEQALLPRVPTDEIEAQTLATADLDLMKSHRFEDVPGVRRHLVRKNAKGSTQSGREGREPGPTPRARPRAPHKPHEVFVELNELLLDKNQEPQWRETARWIKFEEDVEEETERWGKPHVASLSFRSLLELRRTLAHGAVLLDLDQQTLPGVAHQVVEQMVISDQIKAEDRANVLRALLLKHSHPSDEKDFSFPRNISAGSLGSLLGHHHGQGAESDPHVTEPLMGGVPETRLEVERERELPPPAPPAGITRSKSKHELKLLEKIPENAEATVVLVGCVEFLSRPTMAFVRLREAVELDAVLEVPVPVRFLFLLLGPSSANMDYHEIGRSISTLMSDKQFHEAAYLADEREDLLTAINAFLDCSVVLPPSEVQGEELLRSVAHFQRQMLKKREEQGRLLPTGAGLEPKSAQDKALLQMVEAAGAAEDDPLRRTGRPFGGLIRDVRRRYPHYLSDFRDALDPQCLAAVIFIYFAALSPAITFGGLLGEKTQDLIGVSELIMSTALQGVVFCLLGAQPLLVIGFSGPLLVFEEAFFSFCSSNHLEYLVGRVWIGFWLVFLALLMVALEGSFLVRFVSRFTQEIFAFLISLIFIYETFYKLVKIFQEHPLHGCSASNSSEVDGGENMTWAGARPTLGPGNRSLAGQSGQGKPRGQPNTALLSLVLMAGTFFIAFFLRKFKNSRFFPGRIRRVIGDFGVPIAILIMVLVDYSIEDTYTQKLSVPSGFSVTAPEKRGWVINPLGEKSPFPVWMMVASLLPAILVFILIFMETQITTLIISKKERMLQKGSGFHLDLLLIVAMGGICALFGLPWLAAATVRSVTHANALTVMSKAVAPGDKPKIQEVKEQRVTGLLVALLVGLSIVIGDLLRQIPLAVLFGIFLYMGVTSLNGIQFYERLHLLLMPPKHHPDVTYVKKVRTLRMHLFTALQLLCLALLWAVMSTAASLAFPFILILTVPLRMVVLTRIFTDREMKCLDANEAEPVFDEREGVDEYNEMPMPV | 2
Full-length human AE2 with R932A/K1147A/H1148A mutations (natural protein, UniProt P04920-1 1-1241, looked up, No PIP2 in the map; NTD resolved; also called AE2_(IF/REST); mutant AE2; not shown: GFP, C-terminal, cleaved; His tag, C-terminal, cleaved) MSSAPRRPAKGADSFCTPEPESLGPGTPGFPEQEEDELHRTLGVERFEEILQEAGSRGGEEPGRSYGEEDFEYHRQSSHHIHHPLSTHLPPDARRRKTPQGPGRKPRRRPGASPTGETPTIEEGEEDEDEASEAEGARALTQPSPVSTPSSVQFFLQEDDSADRKAERTSPSSPAPLPHQEATPRASKGAQAGTQVEEAEAEAVAVASGTAGGDDGGASGRPLPKAQPGHRSYNLQERRRIGSMTGAEQALLPRVPTDEIEAQTLATADLDLMKSHRFEDVPGVRRHLVRKNAKGSTQSGREGREPGPTPRARPRAPHKPHEVFVELNELLLDKNQEPQWRETARWIKFEEDVEEETERWGKPHVASLSFRSLLELRRTLAHGAVLLDLDQQTLPGVAHQVVEQMVISDQIKAEDRANVLRALLLKHSHPSDEKDFSFPRNISAGSLGSLLGHHHGQGAESDPHVTEPLMGGVPETRLEVERERELPPPAPPAGITRSKSKHELKLLEKIPENAEATVVLVGCVEFLSRPTMAFVRLREAVELDAVLEVPVPVRFLFLLLGPSSANMDYHEIGRSISTLMSDKQFHEAAYLADEREDLLTAINAFLDCSVVLPPSEVQGEELLRSVAHFQRQMLKKREEQGRLLPTGAGLEPKSAQDKALLQMVEAAGAAEDDPLRRTGRPFGGLIRDVRRRYPHYLSDFRDALDPQCLAAVIFIYFAALSPAITFGGLLGEKTQDLIGVSELIMSTALQGVVFCLLGAQPLLVIGFSGPLLVFEEAFFSFCSSNHLEYLVGRVWIGFWLVFLALLMVALEGSFLVRFVSRFTQEIFAFLISLIFIYETFYKLVKIFQEHPLHGCSASNSSEVDGGENMTWAGARPTLGPGNRSLAGQSGQGKPRGQPNTALLSLVLMAGTFFIAFFLRKFKNSRFFPGRIARVIGDFGVPIAILIMVLVDYSIEDTYTQKLSVPSGFSVTAPEKRGWVINPLGEKSPFPVWMMVASLLPAILVFILIFMETQITTLIISKKERMLQKGSGFHLDLLLIVAMGGICALFGLPWLAAATVRSVTHANALTVMSKAVAPGDKPKIQEVKEQRVTGLLVALLVGLSIVIGDLLRQIPLAVLFGIFLYMGVTSLNGIQFYERLHLLLMPPAAHPDVTYVKKVRTLRMHLFTALQLLCLALLWAVMSTAASLAFPFILILTVPLRMVVLTRIFTDREMKCLDANEAEPVFDEREGVDEYNEMPMPV | 2
